Where no end group is shown, it is not given here.
Tests used:
[1] = target: cFos bZIP region (137-193) synthetic peptide, C-terminally biotin-tagged (human); test: dual-colour single-molecule fluorescence imaging on DNA tightropes; biotinylated peptide conjugated to premixed equimolar streptavidin Qdot 605 and Qdot 655 (100 nM peptide, 200 nM Qdots, diluted 50-fold); bound to Lambda DNA tightropes; HSABC buffer (50 mM Tris pH 7.5, 150 mM KCl, 10 mM MgCl2); room temperature (20 C); dual-coloured spots counted among DNA-bound molecules; monomer to dimer on DNA
[2] = target: cFos bZIP region (137-193) synthetic peptide, C-terminally biotin-tagged (human); test: Qdot blinking analysis of single molecules on DNA tightropes; Qdot 655 conjugates only; blinks counted in 50 kymographs of 60 s for each protein; dual Poisson model fitted to cJun and cFos together; HSABC buffer; monomer to dimer on DNA
[3] = target: the molecule itself; test: dual-colour single-molecule fluorescence imaging on DNA tightropes; biotinylated peptide conjugated to premixed equimolar streptavidin Qdot 605 and Qdot 655 (100 nM peptide, 200 nM Qdots, diluted 50-fold); bound to Lambda DNA tightropes; HSABC buffer (50 mM Tris pH 7.5, 150 mM KCl, 10 mM MgCl2); room temperature (20 C); dual-coloured spots counted among DNA-bound molecules; monomer to dimer on DNA

| Molecule | percent of DNA-bound entities that were dual-colored [1] [%] | percent of DNA-bound molecules dimerized [1] [%] | stoichiometry N [1] | percent dimer (fit of Qdot blinking) [2] [%] | stoichiometry N [3] |
| --- | --- | --- | --- | --- | --- |
| cFos bZIP region (137-193) synthetic peptide, C-terminally biotin-tagged | 15 | 30 | 2 | 45.8 | – |
| cJun bZIP region (252-308) synthetic peptide, C-terminally biotin-tagged (bZIP region of cJun, residues 252-308 as stated; gly-ala-pro spacer before the C-terminal biotin; In the tightrope assays the peptide was conjugated through its biotin to streptavidin-coated Qdot 655 and/or Qdot 605; It holds the bZIP domain only; source: synthetic peptide (PeptideSynthetics)) RIKAERKRMRNRIAASKCRKRKLERIARLEEKVKTLKAQNYELASTANMLREQVAQLGAP-biotin | – | – | – | – | 2 |

Reference: paper PMC9364023, “In vitro single molecule and bulk phase studies reveal the AP-1 transcription factor cFos binds to DNA without its partner cJun” (The Journal of Biological Chemistry, 2022)
